Consider 5 molecules from patent US20130209454A1.

Test in all cases: cell-based or functional assay
Test [1] concerns the target HIV-1 Env of strain 3016.v5.c45 (HIV-1).
The target in test [2] is HIV-1 strain Q461.e2 envelope (gp120) (HIV-1).
Test [3] deals with HIV-1 strain 211-9 envelope (gp120) (HIV-1).
Test [4] has as its target HIV-1 strain CNE17 envelope (gp120) (HIV-1).
Test [5] has as its target HIV-1 Env of strain PVO.4 (HIV-1).
The target in test [6] is HIV-1 Env of strain 1054_07_TC4_1499 (HIV-1).
Test [7] addresses HIV-1 Env of strain CNE53 (HIV-1).
The target of test [8] is HIV-1 Env of strain X1193_c1 (HIV-1).
The target in test [9] is HIV-1 strain C1080.c03 envelope (gp120) (HIV-1).
For test [10], the target named is HIV-1 Env of strain ZM197M.PB7 (HIV-1).
Test [11] addresses HIV-1 Env of strain CNE21 (HIV-1).
In test [12] the target is HIV-1 Env of strain CAP45.2.00.G3 (HIV-1).
Test [13] has as its target HIV-1 strain Du422.1 envelope (gp120) (HIV-1).
For test [14], the target named is HIV-1 Env of strain X1254_c3 (HIV-1).
The target in test [15] is HIV-1 Env of strain AC10.0.29 (HIV-1).
The target in test [16] is HIV-1 Env of strain TRO.11 (HIV-1).
Test [17] deals with HIV-1 Env of strain SC422661.8 (HIV-1).
Test [18] has as its target HIV-1 Env of strain CAP45.2.00.G3 (HIV-1). The source holds these as a separate data set.
For test [19], the target named is HIV-1 Env of strain CAP210.2.00.E8 (HIV-1).
Test [20] concerns the target HIV-1 Env of strain CNE19 (HIV-1).
The target of test [21] is HIV-1 Env of strain BJOX009000.02.4 (HIV-1).
Test [22] concerns the target HIV-1 Env of strain BF1266.431a (HIV-1).
The target of test [23] is HIV-1 Env of strain 3365.v2.c2 (HIV-1).
Test [24] deals with HIV-1 Env of strain 191084 B7-19 (HIV-1).
The target in test [25] is HIV-1 Env of strain 246F C1G (HIV-1).
The target in test [26] is HIV-1 Env of strain CAP210.2.00.E8 (HIV-1). The source holds these as a separate data set.
Test [27] concerns the target HIV-1 Env of strain BJOX028000.10.3 (HIV-1).
The target of test [28] is Env of HIV-1 strain CNE21 (HIV-1).
Test [29] concerns the target Env of HIV-1 strain ZM135M.PL10a (HIV-1).
The target of test [30] is Env of HIV-1 strain 89-F1_2_25 (HIV-1).
The target in test [31] is Env of HIV-1 strain RHPA4259.7 (HIV-1).
In test [32] the target is Env of HIV-1 strain 6540.v4.c1 (HIV-1).
Test [33] has as its target Env of HIV-1 strain C2101.c01 (HIV-1).
Test [34] concerns the target Env of HIV-1 strain R1166.c01 (HIV-1).
Test [35] addresses Env of HIV-1 strain ZM109F.PB4 (HIV-1).
The target in test [36] is Env of HIV-1 strain 6545.v4.c1 (HIV-1).
Test [37] concerns the target Env of HIV-1 strain 6811.v7.c18 (HIV-1).
The target in test [38] is Env of HIV-1 strain X2088_c9 (HIV-1).
The target of test [39] is Env of HIV-1 strain ZM233M.PB6 (HIV-1).
In test [40] the target is Env of HIV-1 strain HIV-16845-2.22 (HIV-1).
The target of test [41] is Env of HIV-1 strain BJOX010000.06.2 (HIV-1).
Test [42] concerns the target Env of HIV-1 strain X1254_c3 (HIV-1).
The target of test [43] is Env of HIV-1 strain TRJO4551.58 (HIV-1).
Test [44] addresses Env of HIV-1 strain Ce704809221_1B3 (HIV-1).
Test [45] deals with Env of HIV-1 strain Ce703010054_2A2 (HIV-1).
Test [46] has as its target Env of HIV-1 strain Q259.d2.17 (HIV-1).
Test [47] concerns the target Env of HIV-1 strain 211-9 (HIV-1).
Test [48] concerns the target Env of HIV-1 strain ZM249M.PL1 (HIV-1).
The target in test [49] is Env of HIV-1 strain 620345.c01 (HIV-1).
Test [50] has as its target Env of HIV-1 strain BJOX015000.11.5 (HIV-1).
Test [51] concerns the target Env of HIV-1 strain CNE17 (HIV-1).

Like-named read-outs stand apart in the source and are kept apart here. Where only a bound is given, the exact number is not on record here.

B1: NIH45-46^G54Y IgG (antibody, name in Kabat numbering, V domains shown)
VH: QVRLSQSGGQMKKPGESMRLSCRASGYEFLNCPINWIRLAPGRRPEWMGWLKPRYGAVNYARKFQGRVTMTRDVYSDTAFLELRSLTSDDTAVYFCTRGKYCTARDYYNWDFEHWGRGAPVTVSS
VL: EIVLTQSPATLSLSPGETAIISCRTSQSGSLAWYQQRPGQAPRLVIYSGSTRAAGIPDRFSGSRWGADYNLSISNLESGDFGVYYCQQYEFFGQGTKVQVDI
As for B1, the neutralization IC50 stood at 17.9 µg/mL in test [1]; 0.06 µg/mL in test [5]; 0.064 µg/mL in test [6]; 0.006 µg/mL in test [7]; 0.006 µg/mL in test [8]; 0.07 µg/mL in [10]. Besides, the neutralization IC50 in test [11] is 0.07 µg/mL; in [12], greater than 50 µg/mL; in test [14], 0.013 µg/mL; in [15], 0.4 µg/mL; in test [16], 0.1 µg/mL; in test [17] it was 0.06 µg/mL. For the same molecule, the values for the neutralization IC50 in test [18] and in test [19] were 45 µg/mL and greater than 50 µg/mL, respectively. The neutralization IC80 in test [2] was 0.103 µg/mL; in test [3], greater than 50 µg/mL; in test [4], 0.264 µg/mL; in test [9] it was 1.83 µg/mL; in [13] it was greater than 50 µg/mL.

B2: NIH45-46^G54W(HC), S28Y(LC) (antibody, V domains shown)
VH: QVRLSQSGGQMKKPGESMRLSCRASGYEFLNCPINWIRLAPGRRPEWMGWLKPRWGAVNYARKFQGRVTMTRDVYSDTAFLELRSLTSDDTAVYFCTRGKYCTARDYYNWDFEHWGRGAPVTVSS
VL: EIVLTQSPATLSLSPGETAIISCRTSQYGSLAWYQQRPGQAPRLVIYSGSTRAAGIPDRFSGSRWGADYNLSISNLESGDFGVYYCQQYEFFGQGTKVQVDI
Consider B2, for which the IC50, pseudovirus neutralization in test [1] was found to be 0.006 µg/mL; in test [20], 0.022 µg/mL; in test [21], 0.14 µg/mL; in [5], 0.014 µg/mL; in test [6] it was 0.104 µg/mL; in test [7] it was 0.006 µg/mL. Also, the IC50, pseudovirus neutralization came to 0.002 µg/mL in test [22]; 0.014 µg/mL in test [23]; 0.008 µg/mL in test [8]; 0.001 µg/mL in test [24]; 0.036 µg/mL in [25]; 0.074 µg/mL in [10]. Besides, the IC50, pseudovirus neutralization in test [11] was found to be 0.001 µg/mL; in [12] it was 0.02 µg/mL; in test [26] it was 1.95 µg/mL; in test [27], 0.001 µg/mL; in test [14], 0.006 µg/mL.

B3: NIH45-46^G54W IgG (antibody, name in Kabat numbering, V domains shown)
VH: QVRLSQSGGQMKKPGESMRLSCRASGYEFLNCPINWIRLAPGRRPEWMGWLKPRWGAVNYARKFQGRVTMTRDVYSDTAFLELRSLTSDDTAVYFCTRGKYCTARDYYNWDFEHWGRGAPVTVSS
VL: EIVLTQSPATLSLSPGETAIISCRTSQSGSLAWYQQRPGQAPRLVIYSGSTRAAGIPDRFSGSRWGADYNLSISNLESGDFGVYYCQQYEFFGQGTKVQVDI
In the case of B3, the neutralization IC50 in test [1] is 1.47 µg/mL; in [5], 0.05 µg/mL; in test [6], 0.04 µg/mL; in test [7], less than 0.001 µg/mL; in test [8] it was less than 0.001 µg/mL; in test [10], 0.04 µg/mL. In addition, the neutralization IC50 in [11] was 0.03 µg/mL; in test [12], 32.2 µg/mL; in [26], greater than 50 µg/mL; in [14], 0.002 µg/mL; in [15], 0.2 µg/mL; in test [16], 0.09 µg/mL. The figures for the neutralization IC50 in [17], in test [18] and in test [19] were 0.03 µg/mL, 6.6 µg/mL and 41 µg/mL, respectively. The neutralization IC80 in test [2] was 0.091 µg/mL; in test [3], greater than 50 µg/mL; in test [4], 0.127 µg/mL; in test [9], 0.91 µg/mL; in [13] it was greater than 50 µg/mL.

B4: NIH45-46^G54F IgG (antibody, name in Kabat numbering, V domains shown)
VH: QVRLSQSGGQMKKPGESMRLSCRASGYEFLNCPINWIRLAPGRRPEWMGWLKPRFGAVNYARKFQGRVTMTRDVYSDTAFLELRSLTSDDTAVYFCTRGKYCTARDYYNWDFEHWGRGAPVTVSS
VL: EIVLTQSPATLSLSPGETAIISCRTSQSGSLAWYQQRPGQAPRLVIYSGSTRAAGIPDRFSGSRWGADYNLSISNLESGDFGVYYCQQYEFFGQGTKVQVDI
For the molecule B4, the neutralization IC50 in test [1] was 5.82 µg/mL; in test [5] it was 0.07 µg/mL; in test [6], 0.076 µg/mL; in test [7] it was 0.005 µg/mL; in test [8], less than 0.001 µg/mL; in [10], 0.09 µg/mL. The neutralization IC50 in [11] is 0.12 µg/mL; in test [14], 0.011 µg/mL; in test [15], 0.3 µg/mL; in test [16], 0.08 µg/mL; in test [17], 0.02 µg/mL; in [18] it was greater than 50 µg/mL. In [19], the neutralization IC50 is greater than 50 µg/mL. For the same molecule, the neutralization IC80 in test [2] is 0.135 µg/mL; in test [3], greater than 50 µg/mL; in test [4], 0.287 µg/mL; in test [9] it was 2.26 µg/mL; in [13], greater than 50 µg/mL.

B5: NIH45-46^G54W(HC) S28Y(LC) (antibody, V domains shown)
VH: QVRLSQSGGQMKKPGESMRLSCRASGYEFLNCPINWIRLAPGRRPEWMGWLKPRWGAVNYARKFQGRVTMTRDVYSDTAFLELRSLTSDDTAVYFCTRGKYCTARDYYNWDFEHWGRGAPVTVSS
VL: EIVLTQSPATLSLSPGETAIISCRTSQYGSLAWYQQRPGQAPRLVIYSGSTRAAGIPDRFSGSRWGADYNLSISNLESGDFGVYYCQQYEFFGQGTKVQVDI
Turning to B5, the IC80 in [28] was 0.047 µg/mL; in test [29], 0.163 µg/mL; in [30], greater than 50 µg/mL; in test [31], 0.007 µg/mL; in test [32], greater than 50 µg/mL; in test [33], 0.169 µg/mL. Further, the IC80 in test [34] is 1.01 µg/mL; in [35], 0.086 µg/mL; in [36], greater than 50 µg/mL; in [37] it was 0.11 µg/mL; in test [38] it was greater than 50 µg/mL; in [39] it was 0.083 µg/mL. In addition, the IC80 is 1.44 µg/mL in [40]; 5.04 µg/mL in [41]; 0.03 µg/mL in test [42]; 0.02 µg/mL in test [43]; 0.484 µg/mL in test [44]; 0.051 µg/mL in test [45]. The IC80 in [46] was 0.011 µg/mL; in [47] it was 0.898 µg/mL; in test [48], 0.017 µg/mL; in test [49], greater than 50 µg/mL; in [50], 0.308 µg/mL; in test [51] it was 0.254 µg/mL.
